In the supplement of paper PMC9112550, “Optimization of the antimicrobial peptide Bac7 by deep mutational scanning” (BMC Biology, 2022):

system: Escherichia coli TOP10; assay: shrunken log2 fold change of peptide-encoding DNA abundance (4.5 h post-induction vs induction); higher = less antimicrobial activity (less host growth inhibition); settings: time post-induction: 4.5 h; library: site-saturation at positions 5, 18, 19, 20
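Note: peptides expressed intracellularly from a pBAD plasmid library in pooled LB shake-flask culture, induced with 0.3% L-arabinose, DNA abundance read by NGS, three biological replicates, DESeq2 with apeglm shrinkage.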

| Sequence | shrunken log2 fold change |
| --- | --- |
| RRIRTRPPRLPRPRPRPSTYPRP | -0.4 |
| RRIRTRPPRLPRPRPRPSVKPRP | -0.177 |
| RRIRTRPPRLPRPRPRPSVNPRP | -1.91 |
| RRIRTRPPRLPRPRPRPSVPPRP | -0.0459 |
| RRIRTRPPRLPRPRPRPSWFPRP | -0.343 |
| RRIRTRPPRLPRPRPRPSWKPRP | -0.124 |
| RRIRTRPPRLPRPRPRPSWQPRP | -0.073 |
| RRIRTRPPRLPRPRPRPTAVPRP | -0.133 |
| RRIRTRPPRLPRPRPRPTCGPRP | -0.0204 |
| RRIRTRPPRLPRPRPRPTCHPRP | -0.405 |
| RRIRTRPPRLPRPRPRPTCKPRP | -0.047 |
| RRIRTRPPRLPRPRPRPTDCPRP | 0.0577 |
| RRIRTRPPRLPRPRPRPTDHPRP | -0.283 |
| RRIRTRPPRLPRPRPRPTDWPRP | 0.218 |
| RRIRTRPPRLPRPRPRPTFEPRP | -0.0371 |
| RRIRTRPPRLPRPRPRPTFKPRP | -0.227 |
| RRIRTRPPRLPRPRPRPTFYPRP | -0.0485 |
| RRIRTRPPRLPRPRPRPTGGPRP | 0.164 |
| RRIRTRPPRLPRPRPRPTGPPRP | 0.48 |
| RRIRTRPPRLPRPRPRPTGSPRP | 0.0948 |
| RRIRTRPPRLPRPRPRPTHTPRP | 0.0425 |
| RRIRTRPPRLPRPRPRPTIFPRP | -0.2 |

| Sequence | shrunken log2 fold change |
| --- | --- |
| RRIRTRPPRLPRPRPRPTIKPRP | -0.051 |
| RRIRTRPPRLPRPRPRPTKYPRP | -0.612 |
| RRIRTRPPRLPRPRPRPTLKPRP | 0.00476 |
| RRIRTRPPRLPRPRPRPTMYPRP | -0.82 |
| RRIRTRPPRLPRPRPRPTNFPRP | -0.0921 |
| RRIRTRPPRLPRPRPRPTNHPRP | -0.622 |
| RRIRTRPPRLPRPRPRPTNKPRP | -0.444 |
| RRIRTRPPRLPRPRPRPTPMPRP | 0.276 |
| RRIRTRPPRLPRPRPRPTQMPRP | 0.451 |
| RRIRTRPPRLPRPRPRPTRDPRP | 0.136 |
| RRIRTRPPRLPRPRPRPTTRPRP | 0.223 |
| RRIRTRPPRLPRPRPRPTTSPRP | 0.0942 |
| RRIRTRPPRLPRPRPRPTVLPRP | -0.0554 |
| RRIRTRPPRLPRPRPRPTVMPRP | -0.152 |
| RRIRTRPPRLPRPRPRPTVNPRP | -0.217 |
| RRIRTRPPRLPRPRPRPTWEPRP | 0.95 |
| RRIRTRPPRLPRPRPRPTWTPRP | -0.136 |
| RRIRTRPPRLPRPRPRPVCAPRP | 0.266 |
| RRIRTRPPRLPRPRPRPVDCPRP | -0.142 |
| RRIRTRPPRLPRPRPRPVDYPRP | -0.172 |
| RRIRTRPPRLPRPRPRPVEYPRP | -0.122 |
| RRIRTRPPRLPRPRPRPVGEPRP | -0.0292 |

| Sequence | shrunken log2 fold change |
| --- | --- |
| RRIRTRPPRLPRPRPRPVHGPRP | -0.0733 |
| RRIRTRPPRLPRPRPRPVHKPRP | -0.285 |
| RRIRTRPPRLPRPRPRPVHYPRP | 0.0226 |
| RRIRTRPPRLPRPRPRPVIAPRP | -0.189 |
| RRIRTRPPRLPRPRPRPVIKPRP | -0.237 |
| RRIRTRPPRLPRPRPRPVKTPRP | 0.12 |
| RRIRTRPPRLPRPRPRPVNGPRP | 0.0311 |
| RRIRTRPPRLPRPRPRPVNPPRP | -0.0713 |
| RRIRTRPPRLPRPRPRPVNRPRP | -0.0356 |
| RRIRTRPPRLPRPRPRPVQFPRP | -0.0192 |
| RRIRTRPPRLPRPRPRPVQPPRP | 0.238 |
| RRIRTRPPRLPRPRPRPVQTPRP | 0.216 |
| RRIRTRPPRLPRPRPRPVQWPRP | 0.116 |
| RRIRTRPPRLPRPRPRPVTEPRP | 0.0394 |
| RRIRTRPPRLPRPRPRPVTMPRP | -0.289 |
| RRIRTRPPRLPRPRPRPVWVPRP | -0.0284 |
| RRIRTRPPRLPRPRPRPVYCPRP | -0.301 |
| RRIRTRPPRLPRPRPRPVYNPRP | -0.239 |
| RRIRTRPPRLPRPRPRPVYTPRP | -1.09 |
| RRIRTRPPRLPRPRPRPWCDPRP | -0.596 |
| RRIRTRPPRLPRPRPRPWCPPRP | -0.139 |
| RRIRTRPPRLPRPRPRPWDKPRP | -0.0249 |

| Sequence | shrunken log2 fold change |
| --- | --- |
| RRIRTRPPRLPRPRPRPWFIPRP | -0.64 |
| RRIRTRPPRLPRPRPRPWFYPRP | -0.54 |
| RRIRTRPPRLPRPRPRPWGNPRP | -0.602 |
| RRIRTRPPRLPRPRPRPWHAPRP | 0.093 |
| RRIRTRPPRLPRPRPRPWIIPRP | -0.228 |
| RRIRTRPPRLPRPRPRPWKEPRP | -0.0407 |
| RRIRTRPPRLPRPRPRPWKHPRP | -0.529 |
| RRIRTRPPRLPRPRPRPWMKPRP | 0.0159 |
| RRIRTRPPRLPRPRPRPWMRPRP | 0.556 |
| RRIRTRPPRLPRPRPRPWQMPRP | -0.0135 |
| RRIRTRPPRLPRPRPRPWQYPRP | 0.0126 |
| RRIRTRPPRLPRPRPRPWSCPRP | -0.29 |
| RRIRTRPPRLPRPRPRPWSLPRP | -0.673 |
| RRIRTRPPRLPRPRPRPWTDPRP | -0.17 |
| RRIRTRPPRLPRPRPRPWTYPRP | -0.00992 |
| RRIRTRPPRLPRPRPRPWVLPRP | -0.0462 |
| RRIRTRPPRLPRPRPRPWVVPRP | -0.0414 |
| RRIRTRPPRLPRPRPRPWYMPRP | -0.0891 |
| RRIRTRPPRLPRPRPRPYAGPRP | -0.14 |
| RRIRTRPPRLPRPRPRPYCKPRP | -0.129 |
| RRIRTRPPRLPRPRPRPYCPPRP | -0.821 |
| RRIRTRPPRLPRPRPRPYCTPRP | 1.36 |

| Sequence | shrunken log2 fold change |
| --- | --- |
| RRIRTRPPRLPRPRPRPYDCPRP | -0.304 |
| RRIRTRPPRLPRPRPRPYDYPRP | -0.00193 |
| RRIRTRPPRLPRPRPRPYEAPRP | -0.966 |
| RRIRTRPPRLPRPRPRPYEGPRP | -0.0536 |
| RRIRTRPPRLPRPRPRPYHDPRP | -0.13 |
| RRIRTRPPRLPRPRPRPYHEPRP | -0.0196 |
| RRIRTRPPRLPRPRPRPYILPRP | -0.0244 |
| RRIRTRPPRLPRPRPRPYKNPRP | -0.937 |
| RRIRTRPPRLPRPRPRPYKQPRP | -0.0217 |
| RRIRTRPPRLPRPRPRPYMSPRP | -0.0144 |
| RRIRTRPPRLPRPRPRPYNAPRP | -1.3 |
| RRIRTRPPRLPRPRPRPYNFPRP | 0.0438 |
| RRIRTRPPRLPRPRPRPYPSPRP | -0.575 |
| RRIRTRPPRLPRPRPRPYQEPRP | -0.182 |
| RRIRTRPPRLPRPRPRPYQLPRP | -0.5 |
| RRIRTRPPRLPRPRPRPYQWPRP | -0.216 |
| RRIRTRPPRLPRPRPRPYREPRP | -0.196 |
| RRIRTRPPRLPRPRPRPYSLPRP | -0.186 |
| RRIRTRPPRLPRPRPRPYTPPRP | -0.34 |
| RRIRTRPPRLPRPRPRPYVCPRP | -0.215 |
| RRIRTRPPRLPRPRPRPYVGPRP | -0.689 |
